Like-named read-outs stand apart in the source and are kept apart here.
Columns and labels:
[1] = target: T1, GST-fused Pins^TPR domains (Drosophila (S2 cell cDNA library), UniProt Q9VB22 1-658)
T1 chain: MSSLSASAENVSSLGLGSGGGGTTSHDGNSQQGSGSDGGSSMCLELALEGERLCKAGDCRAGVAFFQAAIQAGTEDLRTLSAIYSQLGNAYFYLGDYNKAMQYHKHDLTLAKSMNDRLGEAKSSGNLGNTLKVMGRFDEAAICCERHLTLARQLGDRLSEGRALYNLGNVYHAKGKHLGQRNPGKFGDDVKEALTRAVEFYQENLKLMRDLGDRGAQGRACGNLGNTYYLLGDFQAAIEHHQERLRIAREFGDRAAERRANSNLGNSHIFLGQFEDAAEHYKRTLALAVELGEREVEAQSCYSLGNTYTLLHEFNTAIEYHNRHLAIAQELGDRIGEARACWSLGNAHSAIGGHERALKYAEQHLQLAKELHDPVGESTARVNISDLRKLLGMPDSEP

MBP:Hts^FL [2] = target: T2, MBP:Hts^FL (Drosophila (S2 cell cDNA library))
T2 chain: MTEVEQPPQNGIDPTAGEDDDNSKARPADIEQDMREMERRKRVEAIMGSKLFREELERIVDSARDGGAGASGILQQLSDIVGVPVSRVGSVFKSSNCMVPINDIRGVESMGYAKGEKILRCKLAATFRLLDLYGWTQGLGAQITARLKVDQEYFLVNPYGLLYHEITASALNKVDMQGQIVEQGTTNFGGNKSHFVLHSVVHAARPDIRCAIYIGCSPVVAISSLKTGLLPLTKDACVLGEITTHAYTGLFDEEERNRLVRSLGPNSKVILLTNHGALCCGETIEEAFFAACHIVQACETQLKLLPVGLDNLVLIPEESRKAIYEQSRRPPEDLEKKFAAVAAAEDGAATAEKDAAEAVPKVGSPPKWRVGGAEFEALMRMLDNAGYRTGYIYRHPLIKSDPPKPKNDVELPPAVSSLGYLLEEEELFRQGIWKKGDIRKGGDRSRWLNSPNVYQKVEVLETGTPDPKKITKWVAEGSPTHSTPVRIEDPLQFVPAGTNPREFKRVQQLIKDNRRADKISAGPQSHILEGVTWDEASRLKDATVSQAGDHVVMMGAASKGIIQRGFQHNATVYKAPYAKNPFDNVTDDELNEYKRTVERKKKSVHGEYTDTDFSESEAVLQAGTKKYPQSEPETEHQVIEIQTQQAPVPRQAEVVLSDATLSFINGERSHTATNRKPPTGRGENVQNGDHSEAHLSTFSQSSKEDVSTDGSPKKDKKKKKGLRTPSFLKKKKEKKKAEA

MBP:Hts^ALDO = target: T3, MBP:Hts^ALDO (Drosophila (S2 cell cDNA library))
T3 chain: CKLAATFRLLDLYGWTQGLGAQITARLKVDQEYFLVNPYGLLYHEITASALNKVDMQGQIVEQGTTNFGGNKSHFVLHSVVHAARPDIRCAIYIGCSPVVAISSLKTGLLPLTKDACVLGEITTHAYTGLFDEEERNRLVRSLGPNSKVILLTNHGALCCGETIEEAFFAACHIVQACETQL

MBP:Hts^FL [3] = target: T2, MBP:Hts^FL
MBP:Hts^1-319 = target: T4, MBP:Hts^1-319 (Drosophila (S2 cell cDNA library))
T4 chain: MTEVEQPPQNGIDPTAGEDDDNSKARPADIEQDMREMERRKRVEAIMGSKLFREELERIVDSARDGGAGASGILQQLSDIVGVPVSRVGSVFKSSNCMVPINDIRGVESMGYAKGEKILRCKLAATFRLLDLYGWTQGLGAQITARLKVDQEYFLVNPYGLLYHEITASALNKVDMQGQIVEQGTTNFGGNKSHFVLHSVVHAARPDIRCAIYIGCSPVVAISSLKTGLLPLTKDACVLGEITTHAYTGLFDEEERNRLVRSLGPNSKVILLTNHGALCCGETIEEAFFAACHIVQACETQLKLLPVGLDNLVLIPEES

| Binder | Kd [1] [nM] | Kd (MBP:Hts^FL [2]) [nM] | Kd (MBP:Hts^ALDO) [nM] | Kd (MBP:Hts^FL [3]) [nM] | Kd (MBP:Hts^1-319) [nM] |
| --- | --- | --- | --- | --- | --- |
| Mud^CC-PBD (domain or fragment, 6xHis tag removed by TEV. Limits not printed: start set just before L1788 (N-terminal end of the CC), end at the conventional PBD boundary (about 1982). Needs the NB isoform that includes the CC and PBD exons. Three copies follow from the predicted parallel trimer.) KLALDCKILQAKYRDAKDEIKRCEKKIKDQRLEMEGKLEKMKNKMRSLYTAEVTRMKEKQERDAAKSASELEALTAQNAKYEEHTRKLSNQIVRLNEKILEQQKQHAIISTNLRHLQMQPISETKPSSTTLTVSSSSSAPNDDWQPFKRPNVPSSNLAMEDEEGEVFNNTYLTDLKLGRVPADMTAEELIYRNSLQPPHLKST | 186 | 1620 | 760 | 620 | 550 |
| Mud^CC-PBD L1788E/I1878D (ED) mutant (domain or fragment, 6xHis tag removed by TEV. The mutations disrupt the coiled-coil trimer. Limits not given, set by convention as for the wild type.) KLALDCKIEQAKYRDAKDEIKRCEKKIKDQRLEMEGKLEKMKNKMRSLYTAEVTRMKEKQERDAAKSASELEALTAQNAKYEEHTRKLSNQIVRLNEKDLEQQKQHAIISTNLRHLQMQPISETKPSSTTLTVSSSSSAPNDDWQPFKRPNVPSSNLAMEDEEGEVFNNTYLTDLKLGRVPADMTAEELIYRNSLQPPHLKST | 189 |  |  |  |  |

From PMC10467427 (2023)
